Measurements: the supplement of paper PMC7877785
± gives the uncertainty stated by the source.

Test: self-splicing fitness, log relative to wild type (ln ratio); higher = more splicing; Tetrahymena group I intron in knt gene, E. coli kanamycin selection, DiMSum; sequences stand for … in CUCUCU…GGAGGGAAAAGUUAUCAGGCAUGCACCUGGUAGCUAGUCUUUAAACCAAUAGAUUGCAUCGGUUUAAAAGGCAAGACCGUCAAAUUGCGGGAAAGGGGUCAACAGCCGUUCAGUACCAAGUCUCAGGGGAAACUUUGAGAUGGCCUUGCAAAGGGUAUGGUAAUAAGCUGACGGACAUGGUCCUAACCACGCAGCCAAGUCCUAAGUCAACAGAUCUUCUGUUGAUAUGGAUGCAGUUCACAGACUAAAUGUCGGUCGGGGAAGAUGUAUUCUUCUCAUAAGAUAUAGUCGGACCUCUCCUUAAUGGGAGCUAGCGGAUGAAGUGAUGCAACACUGGAGCCGCUGGGAACUAAUUUGUAUGCGAAAGUAUAUUGAUUAGUUUUGGAGUACUCGUGGUCG
Summary of the method: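 DiMSum derived fitness as the error-weighted combination of fold changes across replicates, kanamycin versus no kanamycin, normalised to wild type. E. coli BL21(DE3) held the library, which randomised all eight P1ex-region intron nucleotides within the knt kanamycin-resistance gene on pET-22b(+). Six replicate transformations grew overnight at 37°C or 30°C on LB agar with or without 25 μg/mL kanamycin, also containing 100 μg/mL carbenicillin, 50 μM IPTG and 0.2% rhamnose, and pooled colonies were amplicon-sequenced on an Illumina HiSeq 2500.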

Sequence | self-splicing fitness (ln) (30 °C) | self-splicing fitness (ln) (37 °C)
UUUAAGCAAUAUUACGCUAG | -1.54 ± 0.15 | -0.671 ± 0.2
GCCCAGCAAUAUUACGGGUU | -3.01 ± 0.12 | -3.4 ± 0.19
CGCAAGCAAUAUUACGAACU | -0.966 ± 0.065 | -0.369 ± 0.076
AUAAAGCAAUAUUACGCUUU | -4.03 ± 0.24 | -1.59 ± 0.23
CAUGAGCAAUAUUACGAUAA | -3.72 ± 0.35 | -1.97 ± 0.3
GGUAAGCAAUAUUACGAGCG | 0.017 ± 0.17 | 0.512 ± 0.17
GCCUAGCAAUAUUACGUACC | -1.18 ± 0.099 | -0.205 ± 0.12
CUGGAGCAAUAUUACGGACA | -3.7 ± 0.43 | -2.45 ± 0.46
CUACAGCAAUAUUACGGUCG | -0.256 ± 0.068 | 0.417 ± 0.082
AACGAGCAAUAUUACGCCUU | -3.47 ± 0.16 | -1.8 ± 0.11
UGUCAGCAAUAUUACGCCCG | -0.222 ± 0.15 | -0.125 ± 0.21
AAUGAGCAAUAUUACGAUUA | -2.57 ± 0.11 | -1.37 ± 0.1
GCUUAGCAAUAUUACGAAGA | 0.387 ± 0.24 | -0.855 ± 0.15
CAACAGCAAUAUUACGCUCG | -0.822 ± 0.072 | -0.727 ± 0.1
UUGUAGCAAUAUUACGACCG | -0.716 ± 0.36 | -0.156 ± 0.26
AAUAAGCAAUAUUACGCUUC | -3.51 ± 0.23 | -2.59 ± 0.23
CAGCAGCAAUAUUACGCUAG | -2.8 ± 0.16 | -2.1 ± 0.21
GUUUAGCAAUAUUACGGUGG | – | -2.33 ± 0.31
GUAAAGCAAUAUUACGACGC | 0.577 ± 0.16 | 0.0941 ± 0.19
GGAGAGCAAUAUUACGAUUA | – | -0.884 ± 0.37
ACUUAGCAAUAUUACGUUUG | -3.01 ± 0.12 | -2.09 ± 0.16
GCGCAGCAAUAUUACGAGCA | -3.48 ± 0.21 | -1.11 ± 0.14
UGCUAGCAAUAUUACGCUCC | -2.06 ± 0.23 | -0.757 ± 0.24
GAUCAGCAAUAUUACGUGUC | -2.74 ± 0.11 | -2.19 ± 0.17

Sequence | self-splicing fitness (ln) (30 °C) | self-splicing fitness (ln) (37 °C)
UACUAGCAAUAUUACGCGGC | -4.73 ± 0.46 | -2.95 ± 0.4
CUGUAGCAAUAUUACGUCGG | -3.47 ± 0.2 | -1.87 ± 0.18
CGUAAGCAAUAUUACGGCAA | -2.37 ± 0.25 | -1.68 ± 0.28
CCUAAGCAAUAUUACGGCAU | -3.48 ± 0.22 | -1.98 ± 0.19
CGAGAGCAAUAUUACGUGAU | -4.24 ± 0.24 | -2.58 ± 0.2
CUUCAGCAAUAUUACGUAAA | -3.05 ± 0.15 | -2.12 ± 0.19
GCUUAGCAAUAUUACGACCG | -1.2 ± 0.26 | -1.19 ± 0.29
AGUUAGCAAUAUUACGGUCA | -1.08 ± 0.077 | -0.46 ± 0.085
CGGCAGCAAUAUUACGCCUU | -0.474 ± 0.097 | -0.622 ± 0.12
UCAUAGCAAUAUUACGGGUG | -1.94 ± 0.093 | -0.795 ± 0.085
CAGGAGCAAUAUUACGGGAU | -3.55 ± 0.22 | -2.28 ± 0.23
AUCGAGCAAUAUUACGCAGU | -2.07 ± 0.23 | -1.85 ± 0.33
CAACAGCAAUAUUACGAACC | -2.27 ± 0.25 | -1.62 ± 0.22
AGGUAGCAAUAUUACGUUUG | -3.578 ± 0.024 | -2.55 ± 0.039
GGCGAGCAAUAUUACGUCGG | -3.78 ± 0.33 | -2.13 ± 0.28
ACUUAGCAAUAUUACGGAUU | -1.18 ± 0.12 | -0.862 ± 0.14
GGGAAGCAAUAUUACGAUAU | -0.722 ± 0.15 | -0.709 ± 0.23
GUAUAGCAAUAUUACGGGUU | -3.05 ± 0.29 | -2.07 ± 0.27
UGUCAGCAAUAUUACGAUUA | -0.198 ± 0.061 | 0.519 ± 0.088
UGCAAGCAAUAUUACGACAC | -2.23 ± 0.24 | -1.35 ± 0.21
CUAUAGCAAUAUUACGCAGA | -2.65 ± 0.16 | -1.2 ± 0.14
GGCCAGCAAUAUUACGAGCC | -2.63 ± 0.26 | -2.72 ± 0.29
CCCAAGCAAUAUUACGUUAU | -4.09 ± 0.2 | -2.96 ± 0.19
CCUCAGCAAUAUUACGGAUC | – | -1.41 ± 0.22

Sequence | self-splicing fitness (ln) (30 °C) | self-splicing fitness (ln) (37 °C)
GUAGAGCAAUAUUACGGGGG | -2.82 ± 0.26 | -2.22 ± 0.3
GUGAAGCAAUAUUACGCCGU | -1.23 ± 0.13 | -0.0879 ± 0.21
GAACAGCAAUAUUACGUUUG | -2.2 ± 0.067 | -0.632 ± 0.075
CCCGAGCAAUAUUACGAGGG | -4.84 ± 0.36 | -2.58 ± 0.22
GAGUAGCAAUAUUACGGAUU | -1.41 ± 0.073 | -0.46 ± 0.095
AGAGAGCAAUAUUACGCUGA | -2.75 ± 0.18 | -2.94 ± 0.28
CCUUAGCAAUAUUACGUUGC | -3.68 ± 0.38 | -3.31 ± 0.3
UAAUAGCAAUAUUACGCAUU | -2.83 ± 0.21 | -2.15 ± 0.28
AAUUAGCAAUAUUACGAUGU | -0.358 ± 0.078 | 0.171 ± 0.11
AUUCAGCAAUAUUACGAGUC | -3.54 ± 0.26 | -2.13 ± 0.43
UGCUAGCAAUAUUACGGCUA | -0.795 ± 0.17 | 0.345 ± 0.15
GUGCAGCAAUAUUACGGACA | -1.58 ± 0.14 | -0.853 ± 0.16
CCGCAGCAAUAUUACGGCGU | -2.44 ± 0.081 | -1.27 ± 0.096
UCCAAGCAAUAUUACGAAAG | -2.45 ± 0.19 | -3.23 ± 0.35
UUUUAGCAAUAUUACGUUGG | -2.07 ± 0.21 | -2.23 ± 0.32
UUAGAGCAAUAUUACGUAUG | -1.6 ± 0.085 | -1.31 ± 0.12
CCGUAGCAAUAUUACGGAUG | -3.56 ± 0.3 | -2.11 ± 0.23
GUACAGCAAUAUUACGUGGA | -4.34 ± 0.29 | -2.52 ± 0.14
GGUAAGCAAUAUUACGAAGG | -3.74 ± 0.25 | -2.84 ± 0.25
AUCGAGCAAUAUUACGUAUC | -2.86 ± 0.35 | -3.28 ± 0.37
UUCCAGCAAUAUUACGAUGA | -0.211 ± 0.067 | 0.0453 ± 0.072
GUCAAGCAAUAUUACGAGCG | -2.72 ± 0.16 | -1.2 ± 0.18
AGGUAGCAAUAUUACGAGCC | -0.991 ± 0.021 | -0.862 ± 0.037
AGCGAGCAAUAUUACGUCCC | -1 ± 0.11 | -0.699 ± 0.14

Sequence | self-splicing fitness (ln) (30 °C) | self-splicing fitness (ln) (37 °C)
ACCGAGCAAUAUUACGUAGA | -4.48 ± 0.29 | -2.69 ± 0.18
CUAAAGCAAUAUUACGGAAC | -2.36 ± 0.19 | -1.42 ± 0.17
GCCUAGCAAUAUUACGCUAC | -2.7 ± 0.21 | -2.81 ± 0.36
CUCGAGCAAUAUUACGCGUC | – | -2.79 ± 0.32
UCGGAGCAAUAUUACGUUCU | -3.17 ± 0.2 | -1.41 ± 0.4
CAGGAGCAAUAUUACGUUAU | -3.4 ± 0.29 | -2.71 ± 0.3
AUUUAGCAAUAUUACGUAUA | -2.53 ± 0.34 | -1.48 ± 0.21
GGGAAGCAAUAUUACGUCUA | 0.132 ± 0.17 | -0.25 ± 0.18
AAUCAGCAAUAUUACGGGGC | -3.92 ± 0.33 | -2.58 ± 0.29
AAAAAGCAAUAUUACGGCCU | -0.199 ± 0.069 | 0.253 ± 0.095
CAUCAGCAAUAUUACGCAAG | -0.655 ± 0.065 | -0.304 ± 0.065
UUAAAGCAAUAUUACGCUUA | -1.02 ± 0.083 | -0.561 ± 0.11
UUCGAGCAAUAUUACGUCUG | -2.57 ± 0.24 | -1.65 ± 0.22
UAAAAGCAAUAUUACGUGCU | -2.62 ± 0.1 | -1.56 ± 0.11
CUAAAGCAAUAUUACGCACG | -0.0346 ± 0.092 | 0.511 ± 0.14
CUCAAGCAAUAUUACGACGU | -2.18 ± 0.098 | -1.54 ± 0.11
UCCAAGCAAUAUUACGCGCU | -2.67 ± 0.21 | -1.52 ± 0.23
ACGUAGCAAUAUUACGACAG | -2.56 ± 0.13 | -0.828 ± 0.13
CGAAAGCAAUAUUACGAGCG | -0.778 ± 0.098 | -0.277 ± 0.11
UUGCAGCAAUAUUACGGAUA | -1.92 ± 0.15 | -1.12 ± 0.17
GCCGAGCAAUAUUACGUCCG | -3.69 ± 0.28 | -2.87 ± 0.29
CAAAAGCAAUAUUACGUUUU | -3.57 ± 0.12 | -2.79 ± 0.16
GGCGAGCAAUAUUACGCAUU | -1.13 ± 0.11 | -0.998 ± 0.14
GCUUAGCAAUAUUACGCUAG | -2.81 ± 0.12 | -2.19 ± 0.14
